Measurements published in the supplement of paper PMC6757056.
± gives the standard deviation of the averaged measurements.

B1: library; a variant is named by its letters at N, in order (parent)
chain: GCUGUCACCGGUGUAUUACCCUAGUGGUCGACCGGUCUGAUGAGUCUNNNNNNAGACGAAACAGC

Columns and labels:
[1] = variants of: B1; assay: normalized RNA/DNA level with ligand (relative to sTRSVctl = 100) (log10 (% of sTRSVctl)); ligand: hypoxanthine (xanthine aptamer); higher = less ribozyme self-cleavage, higher mRNA level; conditions: ligand concentration (+) RNA-Seq: 5 mM, HEK293T, reporter: mCherry (pCS4076), ligand present: yes
Procedure, shortened: (§1)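 For each 6-well well, 4 µg of library plasmid encoding mCherry-linked ribozyme switches, or eGFP-linked ones in some ligand experiments, was transfected into HEK293T. Any ligand was added 1 h before transfection, and RNA was extracted with EDTA 72 h after it, then reverse-transcribed, amplified, barcoded and sequenced. RNA level was obtained by dividing RNA reads by DNA reads, normalizing to a spiked-in non-cleaving sequence or to the top sequences, then scaling and log-transforming. The top set was 25 sequences, scaling was ×100 with log10, and ≥100 DNA reads were required.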

[2] = variants of: B1; assay: normalized RNA/DNA level without ligand (relative to sTRSVctl = 100) (log10 (% of sTRSVctl)); ligand: hypoxanthine (xanthine aptamer); higher = less ribozyme self-cleavage, higher mRNA level; conditions: HEK293T, reporter: mCherry (pCS4076), ligand present: no
Procedure, shortened: as §1

Row | Variant | normalized RNA/DNA level with ligand (log10) [1] | normalized RNA/DNA level without ligand (log10) [2]
1 | GUUCCC | 1.99 ± 0.021 | 1.92 ± 0.044
2 | GUUCCG | 1.94 ± 0.028 | 1.72 ± 0.048
3 | GUUCCU | 1.99 ± 0.012 | 1.98 ± 0.056
4 | GUUCCA | 1.963 ± 0.017 | 1.9 ± 0.029
5 | GUUGCU | 1.97 ± 0.069 | 1.862 ± 0.0076
6 | GUUGCG | 1.87 ± 0.041 | 1.58 ± 0.072
7 | GUUGCC | 1.9665 ± 0.0019 | 1.9 ± 0.033
8 | AUUGUC | 1.952 ± 0.016 | 1.969 ± 0.015
9 | AUUGUA | 1.89 ± 0.021 | 1.78 ± 0.022
10 | AUUGUU | 1.9265 ± 0.0005 | 1.8319 ± 0.00072
11 | AUUUCA | 1.87 ± 0.04 | 1.829 ± 0.017
12 | AUUUCU | 1.96 ± 0.052 | 1.917 ± 0.018
13 | AUUUCG | 1.901 ± 0.0068 | 1.568 ± 0.015
14 | AUUUCC | 1.9621 ± 0.0014 | 1.878 ± 0.0067
15 | GUUGGA | 1.913 ± 0.0093 | 1.67 ± 0.042
16 | GUUGGU | 1.9283 ± 0.00055 | 1.78 ± 0.021
17 | GUUGGC | 1.9 ± 0.029 | 1.51 ± 0.025
18 | GUUAUA | 1.881 ± 0.0041 | 1.83 ± 0.025
19 | GUUAUU | 1.971 ± 0.0054 | 1.916 ± 0.0092
20 | GUUAUC | 1.96 ± 0.049 | 1.86 ± 0.037
21 | CUUUGA | 1.97 ± 0.035 | 1.88 ± 0.0019
22 | CUUUGG | 1.88 ± 0.032 | 1.58 ± 0.043
23 | CUUUGU | 1.93 ± 0.021 | 1.975 ± 0.013
24 | CUUUGC | 1.92 ± 0.026 | 1.88 ± 0.06
25 | UUUCCC | 1.99 ± 0.024 | 1.96 ± 0.039
26 | UUUCCU | 2.05 ± 0.069 | 1.9175 ± 0.00088
27 | UUUCCA | 1.95 ± 0.037 | 1.894 ± 0.0032

Row | Variant | normalized RNA/DNA level with ligand (log10) [1] | normalized RNA/DNA level without ligand (log10) [2]
28 | UUUCCG | 1.99 ± 0.063 | 1.83 ± 0.07
29 | CUUGCG | 1.937 ± 0.0067 | 1.853 ± 0.004
30 | CUUGCC | 1.9562 ± 0.0012 | 1.884 ± 0.015
31 | GUUUAU | 1.96 ± 0.05 | 1.83 ± 0.042
32 | GUUUAC | 1.96 ± 0.04 | 1.88 ± 0.028
33 | UUUGAU | 1.9 ± 0.052 | 1.7965 ± 0.0012
34 | UUUGAC | 1.927 ± 0.0075 | 1.84 ± 0.037
35 | CUUACU | 1.96 ± 0.028 | 1.856 ± 0.0075
36 | CUUCAA | 1.959 ± 0.013 | 1.82 ± 0.05
37 | CUUCAU | 1.921 ± 0.0074 | 1.88 ± 0.067
38 | CUUCAG | 1.92 ± 0.08 | 1.84 ± 0.07
39 | UUUAUG | 1.92 ± 0.027 | 1.772 ± 0.014
40 | UUUAUC | 1.97 ± 0.03 | 1.99 ± 0.021
41 | CUUGAC | 1.923 ± 0.019 | 1.812 ± 0.0094
42 | CUUGAG | 1.87 ± 0.03 | 1.72 ± 0.068
43 | GUUCUG | 1.89 ± 0.058 | 1.54 ± 0.03
44 | GUUCUU | 1.95 ± 0.051 | 1.92 ± 0.034
45 | GUUCUA | 1.949 ± 0.011 | 1.89 ± 0.039
46 | GUUCUC | 1.981 ± 0.0077 | 1.95 ± 0.02
47 | UUUAGA | 1.93 ± 0.054 | 1.75 ± 0.035
48 | GUUUCA | 1.98 ± 0.024 | 1.9949 ± 0.0014
49 | GUUUCG | 1.9698 ± 0.0015 | 2.01 ± 0.098
50 | GUUUCU | 2 ± 0.063 | 2.02 ± 0.027
51 | UUUUCG | 1.923 ± 0.0085 | 1.79 ± 0.053
52 | UUUUCU | 1.99 ± 0.052 | 1.9 ± 0.02
53 | UUUUCA | 1.94 ± 0.056 | 1.901 ± 0.012
54 | AUUCUU | 1.94 ± 0.055 | 1.93 ± 0.023

Row | Variant | normalized RNA/DNA level with ligand (log10) [1] | normalized RNA/DNA level without ligand (log10) [2]
55 | AUUCUA | 1.92 ± 0.041 | 1.84 ± 0.062
56 | AUUCUG | 1.85 ± 0.061 | 1.61 ± 0.039
57 | AUUGCC | 1.95 ± 0.021 | 1.85 ± 0.021
58 | AUUGCA | 1.9 ± 0.0078 | 1.8 ± 0.026
59 | AUUGCU | 1.92 ± 0.048 | 1.88 ± 0.048
60 | UUUUUG | 1.98 ± 0.025 | 1.83 ± 0.064
61 | UUUUUC | 2.02 ± 0.043 | 1.99 ± 0.02
62 | UUUUUA | 1.99 ± 0.064 | 1.93 ± 0.045
63 | UUUUUU | 1.973 ± 0.01 | 1.973 ± 0.017
64 | UUUCAU | 1.915 ± 0.013 | 1.838 ± 0.0065
65 | UUUCAA | 1.9299 ± 0.00082 | 1.866 ± 0.015
66 | UUUCAC | 1.9884 ± 0.0013 | 1.91 ± 0.031
67 | UUUCAG | 1.9 ± 0.021 | 1.71 ± 0.042
68 | AUUGAA | 1.91 ± 0.047 | 1.75 ± 0.026
69 | CUUCUA | 1.97 ± 0.051 | 1.85 ± 0.077
70 | CUUCUC | 2.041 ± 0.013 | 2.03 ± 0.059
71 | CUUCUG | 1.948 ± 0.013 | 1.91 ± 0.053
72 | CUUCUU | 2.01 ± 0.066 | 1.868 ± 0.0019
73 | CUUCCA | 1.93 ± 0.043 | 1.91 ± 0.091
74 | CUUCCU | 1.98 ± 0.038 | 1.96 ± 0.032
75 | AUUUAU | 1.9 ± 0.039 | 1.907 ± 0.019
76 | AUUUAG | 1.85 ± 0.033 | 1.55 ± 0.053
77 | AUUUAC | 1.927 ± 0.011 | 1.847 ± 0.0068
78 | CUUUAA | 1.92 ± 0.049 | 1.78 ± 0.054
79 | CUUUAC | 1.92 ± 0.073 | 1.81 ± 0.052
